From patent US12104181B2, “Compositions and methods for treating viral infections targeting TRIM7” (THE BOARD OF REGENTS OF THE UNIVERSITY OF TEXAS SYSTEM, priority 2021, dated 2024) come the findings set out here.

The subject of this assay is coxsackievirus B3 (CVB3-GFP). Type of assay: cell-based. The following applies: HeLa cells, replicate R1; for Percent Infected R1: GFP-positive cells within RFP-positive gate.

B1: TRIM4: human RING type E3 ligase expressed from lentiviral vector (protein, UniProt Q9C037 1-500, looked up)
E3 ubiquitin-protein ligase …: MEAEDIQEELTCPICLDYFQDPVSIECGHNFCRGCLHRNWAPGGGPFPCPECRHPSAPAALRPNWALARLTEKTQRRRLGPVPPGLCGRHWEPLRLFCEDDQRPVCLVCRESQEHQTHAMAPIDEAFESYRTGNFDIHVDEWKRRLIRLLLYHFKQEEKLLKSQRNLVAKMKKVMHLQDVEVKNATQWKDKIKSQRMRISTEFSKLHNFLVEEEDLFLQRLNKEEEETKKKLNENTLKLNQTIASLKKLILEVGEKSQAPTLELLQNPKEVLTRSEIQDVNYSLEAVKVKTVCQIPLMKEMLKRFQVAVNLAEDTAHPKLVFSQEGRYVKNTASASSWPVFSSAWNYFAGWRNPQKTAFVERFQHLPCVLGKNVFTSGKHYWEVESRDSLEVAVGVCREDVMGITDRSKMSPDVGIWAIYWSAAGYWPLIGFPGTPTQQEPALHRVGVYLDRGTGNVSFYSAVDGVHLHTFSCSSVSRLRPFFWLSPLASLVIPPVTDRK
Turning to B1, the “Percent Infected R1” value was found to be 67.8% and the “Z score R1” value was −0.265.

B2: TRIM14: human RING type E3 ligase expressed from lentiviral vector (protein, UniProt Q14142 1-442, looked up)
Tripartite motif-containing …: MAGAATGSRTPGRSELVEGCGWRCPEHGDRVAELFCRRCRRCVCALCPVLGAHRGHPVGLALEAAVHVQKLSQECLKQLAIKKQQHIDNITQIEDATEKLKANAESSKTWLKGKFTELRLLLDEEEALAKKFIDKNTQLTLQVYREQADSCREQLDIMNDLSNRVWSISQEPDPVQRLQAYTATEQEMQQQMSLGELCHPVPLSFEPVKSFFKGLVEAVESTLQTPLDIRLKESINCQLSDPSSTKPGTLLKTSPSPERSLLLKYARTPTLDPDTMHARLRLSADRLTVRCGLLGSLGPVPVLRFDALWQVLARDCFATGRHYWEVDVQEAGAGWWVGAAYASLRRRGASAAARLGCNRQSWCLKRYDLEYWAFHDGQRSRLRPRDDLDRLGVFLDYEAGVLAFYDVTGGMSHLHTFRATFQEPLYPALRLWEGAISIPRLP
For the molecule B2, the “Percent Infected R1” value stood at 70.6% and the “Z score R1” value is listed as −0.229.

B3: TRIM6: human RING type E3 ligase expressed from lentiviral vector (protein, UniProt Q9C030 1-488, looked up)
Tripartite motif-containing …: MTSPVLVDIREEVTCPICLELLTEPLSIDCGHSFCQACITPNGRESVIGQEGERSCPVCQTSYQPGNLRPNRHLANIVRRLREVVLGPGKQLKAVLCADHGEKLQLFCQEDGKVICWLCERSQEHRGHHTFLVEEVAQEYQEKFQESLKKLKNEEQEAEKLTAFIREKKTSWKNQMEPERCRIQTEFNQLRNILDRVEQRELKKLEQEEKKGLRIIEEAENDLVHQTQSLRELISDLERRCQGSTMELLQDVSDVTERSEFWTLRKPEALPTKLRSMFRAPDLKRMLRVCRELTDVQSYWVDVTLNPHTANLNLVLAKNRRQVRFVGAKVSGPSCLEKHYDCSVLGSQHFSSGKHYWEVDVAKKTAWILGVCSNSLGPTFSFNHFAQNHSAYSRYQPQSGYWVIGLQHNHEYRAYEDSSPSLLLSMTVPPRRVGVFLDYEAGTVSFYNVTNHGFPIYTFSKYYFPTTLCPYFNPCNCVIPMTLRRPSS
B3: the “Percent Infected R1” value was determined as 67.4% and the “Z score R1” value was −0.27.

B4: TRIM9: human RING type E3 ligase expressed from lentiviral vector (protein, UniProt Q9C026 1-710, looked up)
E3 ubiquitin-protein ligase …: MEEMEEELKCPVCGSFYREPIILPCSHNLCQACARNILVQTPESESPQSHRAAGSGVSDYDYLDLDKMSLYSEADSGYGSYGGFASAPTTPCQKSPNGVRVFPPAMPPPATHLSPALAPVPRNSCITCPQCHRSLILDDRGLRGFPKNRVLEGVIDRYQQSKAAALKCQLCEKAPKEATVMCEQCDVFYCDPCRLRCHPPRGPLAKHRLVPPAQGRVSRRLSPRKVSTCTDHELENHSMYCVQCKMPVCYQCLEEGKHSSHEVKALGAMWKLHKSQLSQALNGLSDRAKEAKEFLVQLRNMVQQIQENSVEFEACLVAQCDALIDALNRRKAQLLARVNKEHEHKLKVVRDQISHCTVKLRQTTGLMEYCLEVIKENDPSGFLQISDALIRRVHLTEDQWGKGTLTPRMTTDFDLSLDNSPLLQSIHQLDFVQVKASSPVPATPILQLEECCTHNNSATLSWKQPPLSTVPADGYILELDDGNGGQFREVYVGKETMCTVDGLHFNSTYNARVKAFNKTGVSPYSKTLVLQTSEVAWFAFDPGSAHSDIILSNDNLTVTCSSYDDRVVLGKTGFSKGIHYWELTVDRYDNHPDPAFGVARMDVMKDVMLGKDDKAWAMYVDNNRSWFMHNNSHTNRTEGGITKGATIGVLLDLNRKNLTFFINDEQQGPIAFDNVEGLFFPAVSLNRNVQVTLHTGLPVPDFYSSRASIA
For the molecule B4, the “Percent Infected R1” value is listed as 81.3% and the “Z score R1” value is given as −0.093.

B5: TRIM11: human RING type E3 ligase expressed from lentiviral vector (protein, UniProt Q96F44 1-468, looked up)
E3 ubiquitin-protein ligase …: MAAPDLSTNLQEEATCAICLDYFTDPVMTDCGHNFCRECIRRCWGQPEGPYACPECRELSPQRNLRPNRPLAKMAEMARRLHPPSPVPQGVCPAHREPLAAFCGDELRLLCAACERSGEHWAHRVRPLQDAAEDLKAKLEKSLEHLRKQMQDALLFQAQADETCVLWQKMVESQRQNVLGEFERLRRLLAEEEQQLLQRLEEEELEVLPRLREGAAHLGQQSAHLAELIAELEGRCQLPALGLLQDIKDALRRVQDVKLQPPEVVPMELRTVCRVPGLVETLRRFRGDVTLDPDTANPELILSEDRRSVQRGDLRQALPDSPERFDPGPCVLGQERFTSGRHYWEVEVGDRTSWALGVCRENVNRKEKGELSAGNGFWILVFLGSYYNSSERALAPLRDPPRRVGIFLDYEAGHLSFYSATDGSLLFIFPEIPFSGTLRPLFSPLSSSPTPMTICRPKGGSGDTLAPQ
In the case of B5, the “Percent Infected R1” value is listed as 58.2% and the “Z score R1” value is on record as −0.387.

B6: TRIM15: human RING type E3 ligase expressed from lentiviral vector (protein, UniProt Q9C019 1-465, looked up)
E3 ubiquitin-protein ligase …: MPATPSLKVVHELPACTLCAGPLEDAVTIPCGHTFCRLCLPALSQMGAQSSGKILLCPLCQEEEQAETPMAPVPLGPLGETYCEEHGEKIYFFCENDAEFLCVFCREGPTHQAHTVGFLDEAIQPYRDRLRSRLEALSTERDEIEDVKCQEDQKLQVLLTQIESKKHQVETAFERLQQELEQQRCLLLARLRELEQQIWKERDEYITKVSEEVTRLGAQVKELEEKCQQPASELLQDVRVNQSRCEMKTFVSPEAISPDLVKKIRDFHRKILTLPEMMRMFSENLAHHLEIDSGVITLDPQTASRSLVLSEDRKSVRYTRQKKSLPDSPLRFDGLPAVLGFPGFSSGRHRWQVDLQLGDGGGCTVGVAGEGVRRKGEMGLSAEDGVWAVIISHQQCWASTSPGTDLPLSEIPRGVRVALDYEAGQVTLHNAQTQEPIFTFTASFSGKVFPFFAVWKKGSCLTLKG
modifications: lentiviral expression
notes: human RING type E3 ligase expressed from lentiviral vector
In the case of B6, the “Percent Infected R1” value is recorded as 66.8% and the “Z score R1” value is given as −0.277.

B7: TRIM10: human RING type E3 ligase expressed from lentiviral vector (protein, UniProt Q9UDY6 1-481, looked up)
Tripartite motif-containing …: MASAASVTSLADEVNCPICQGTLREPVTIDCGHNFCRACLTRYCEIPGPDLEESPTCPLCKEPFRPGSFRPNWQLANVVENIERLQLVSTLGLGEEDVCQEHGEKIYFFCEDDEMQLCVVCREAGEHATHTMRFLEDAAAPYREQIHKCLKCLRKEREEIQEIQSRENKRMQVLLTQVSTKRQQVISEFAHLRKFLEEQQSILLAQLESQDGDILRQRDEFDLLVAGEICRFSALIEELEEKNERPARELLTDIRSTLIRCETRKCRKPVAVSPELGQRIRDFPQQALPLQREMKMFLEKLCFELDYEPAHISLDPQTSHPKLLLSEDHQRAQFSYKWQNSPDNPQRFDRATCVLAHTGITGGRHTWVVSIDLAHGGSCTVGVVSEDVQRKGELRLRPEEGVWAVRLAWGFVSALGSFPTRLTLKEQPRQVRVSLDYEVGWVTFTNAVTREPIYTFTASFTRKVIPFFGLWGRGSSFSLSS
modifications: lentiviral expression
notes: as for B6
In the case of B7, the “Percent Infected R1” value worked out at 58.7% and the “Z score R1” value was −0.38.

B8: TRIM8: human RING type E3 ligase expressed from lentiviral vector (protein, UniProt Q9BZR9 1-551, looked up)
E3 ubiquitin-protein ligase …: MAENWKNCFEEELICPICLHVFVEPVQLPCKHNFCRGCIGEAWAKDSGLVRCPECNQAYNQKPGLEKNLKLTNIVEKFNALHVEKPPAALHCVFCRRGPPLPAQKVCLRCEAPCCQSHVQTHLQQPSTARGHLLVEADDVRAWSCPQHNAYRLYHCEAEQVAVCQYCCYYSGAHQGHSVCDVEIRRNEIRKMLMKQQDRLEEREQDIEDQLYKLESDKRLVEEKVNQLKEEVRLQYEKLHQLLDEDLRQTVEVLDKAQAKFCSENAAQALHLGERMQEAKKLLGSLQLLFDKTEDVSFMKNTKSVKILMDRTQTCTSSSLSPTKIGHLNSKLFLNEVAKKEKQLRKMLEGPFSTPVPFLQSVPLYPCGVSSSGAEKRKHSTAFPEASFLETSSGPVGGQYGAAGTASGEGQSGQPLGPCSSTQHLVALPGGAQPVHSSPVFPPSQYPNGSAAQQPMLPQYGGRKILVCSVDNCYCSSVANHGGHQPYPRSGHFPWTVPSQEYSHPLPPTPSVPQSLPSLAVRDWLDASQQPGHQDFYRVYGQPSTKHYVTS
For the molecule B8, the “Percent Infected R1” value was 70.1% and the “Z score R1” value is given as −0.235.

B9: TRIM13: human RING type E3 ligase expressed from lentiviral vector (protein, UniProt O60858 1-407, looked up)
E3 ubiquitin-protein ligase …: MELLEEDLTCPICCSLFDDPRVLPCSHNFCKKCLEGILEGSVRNSLWRPAPFKCPTCRKETSATGINSLQVNYSLKGIVEKYNKIKISPKMPVCKGHLGQPLNIFCLTDMQLICGICATRGEHTKHVFCSIEDAYAQERDAFESLFQSFETWRRGDALSRLDTLETSKRKSLQLLTKDSDKVKEFFEKLQHTLDQKKNEILSDFETMKLAVMQAYDPEINKLNTILQEQRMAFNIAEAFKDVSEPIVFLQQMQEFREKIKVIKETPLPPSNLPASPLMKNFDTSQWEDIKLVDVDKLSLPQDTGTFISKIPWSFYKLFLLILLLGLVIVFGPTMFLEWSLFDDLATWKGCLSNFSSYLTKTADFIEQSVFYWEQVTDGFFIFNERFKNFTLVVLNNVAEFVCKYKLL
modifications: lentiviral expression
notes: as for B6
In the case of B9, the “Percent Infected R1” value came to 53% and the “Z score R1” value is −0.453.

B10: RNF141: human RING type E3 ligase expressed from lentiviral vector (protein, UniProt Q8WVD5 2-230, looked up)
RING finger protein 141: GQQISDQTQLVINKLPEKVAKHVTLVRESGSLTYEEFLGRVAELNDVTAKVASGQEKHLLFEVQPGSDSSAFWKVVVRVVCTKINKSSGIVEASRIMNLYQFIQLYKDITSQAAGVLAQSSTSEEPDENSSSVTSCQASLWMGRVKQLTDEEECCICMDGRADLILPCAHSFCQKCIDKWSDRHRNCPICRLQMTGANESWVVSDAPTEDDMANYILNMADEAGQPHRP
For the molecule B10, the “Percent Infected R1” value is recorded as 87.2% and the “Z score R1” value is −0.02.
